Test results taken from the supplement of paper PMC12042874.
± gives the uncertainty stated by the source.

test: amyloid nucleation score (Sup35N fusion, yeast selection) (log enrichment); library NNK1; higher = more nucleation; inactive = no reads after selection
In short: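 Sup35N was fused to peptides of 20 random codons and expressed in psi-negative yeast, which were induced with 100 μM copper sulfate for 24 hours and then grown on medium lacking adenine and uracil for 7 days at 30°C. Plasmid inserts from input and output were sequenced on Illumina. The nucleation score is the DiMSum log enrichment of output over input reads, centred on the mode score of non-aggregating sequences. Sequences with under 100 input reads were left out, and random libraries had three technical output replicates.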

Question: With TNDKCHSITVFSYREVDWTW as the substance, how does the amyloid nucleation score read?
Answer: The amyloid nucleation score was 0.445 ± 0.29.

Question: Which amyloid nucleation score does the source give for TNKGFQYSGLVYCCWVRYLF here?
Answer: Its amyloid nucleation score is “inactive”.

Question: With TNLMSFY as the substance, how does the amyloid nucleation score read?
Answer: Its amyloid nucleation score is -0.721 ± 1.1.

Question: For TNMRTWFSGSFTILKCTDFQ, which amyloid nucleation score is on record?
Answer: Its amyloid nucleation score is 0.744 ± 0.74.

Question: Which amyloid nucleation score does the source give for TPAASIRLTRLPEGLIFI here?
Answer: Its amyloid nucleation score is 0.47 ± 0.95.

Question: For TPCNVLGNSGPVWSWNP, which amyloid nucleation score is on record?
Answer: Its amyloid nucleation score is 0.166 ± 0.81.

Question: For TPLNTLYRLPMGNWLG, which amyloid nucleation score is on record?
Answer: Its amyloid nucleation score is 0.06 ± 0.26.

Question: For TPNMCGWLVLTSM, which amyloid nucleation score is on record?
Answer: The amyloid nucleation score was -0.448 ± 0.62.

Question: For TPSLLVAVRILAAVMPSWET, which amyloid nucleation score is on record?
Answer: The amyloid nucleation score was -0.746 ± 0.43.

Question: Which amyloid nucleation score does the source give for TQVSVFQ here?
Answer: Its amyloid nucleation score is -1.3 ± 0.83.

Question: Which amyloid nucleation score does the source give for TRCASC here?
Answer: The amyloid nucleation score was 0.3 ± 0.65.

Question: Which amyloid nucleation score does the source give for TRCYFNSLMCTDTNSCIAGV here?
Answer: Its amyloid nucleation score is -0.135 ± 0.26.

Question: For TRFLLLSLRDGSEQV, which amyloid nucleation score is on record?
Answer: The amyloid nucleation score was 0.577 ± 0.73.

Question: With TRFLNDIVMSIDSSIIDPTC as the substance, how does the amyloid nucleation score read?
Answer: Its amyloid nucleation score is 0.809 ± 0.7.

Question: Which amyloid nucleation score does the source give for TRIMVDFLLDWHCRMVKLVN here?
Answer: The amyloid nucleation score was 0.33 ± 0.44.

Question: For TRLCFGFWAKIEWMRSVSGV, which amyloid nucleation score is on record?
Answer: Its amyloid nucleation score is 0.082 ± 0.64.

Question: For TRLKFGGSKHESSQT, which amyloid nucleation score is on record?
Answer: The amyloid nucleation score was 1.18 ± 0.43.

Question: For TRLSMLIYALTGNVMSGSCV, which amyloid nucleation score is on record?
Answer: Its amyloid nucleation score is 0.505 ± 0.46.

Question: For TRMCLRAKSMWVVDSN, which amyloid nucleation score is on record?
Answer: Its amyloid nucleation score is 0.068 ± 0.48.

Question: With TRMITWRPFRSSWVFTNLYE as the substance, how does the amyloid nucleation score read?
Answer: Its amyloid nucleation score is 2.04 ± 0.19.

Question: For TRMRLPP, which amyloid nucleation score is on record?
Answer: The amyloid nucleation score was -0.299 ± 0.48.

Question: For TRMRSSKSSVA, which amyloid nucleation score is on record?
Answer: Its amyloid nucleation score is 0.532 ± 0.42.

Question: For TRQWGHFSLYGESYFSCI, which amyloid nucleation score is on record?
Answer: Its amyloid nucleation score is 0.187 ± 0.63.

Question: Which amyloid nucleation score does the source give for TRRHKYFEWD here?
Answer: The amyloid nucleation score was -0.285 ± 0.8.

Question: Which amyloid nucleation score does the source give for TRSMALL here?
Answer: Its amyloid nucleation score is -0.098 ± 0.71.

Question: For TRVYIYRTGIWFYLTSNSFT, which amyloid nucleation score is on record?
Answer: Its amyloid nucleation score is 0.577 ± 0.43.

Question: With TRYPLNISEVFRFDFPNRIP as the substance, how does the amyloid nucleation score read?
Answer: Its amyloid nucleation score is -1.32 ± 2.4.

Question: For TRYSTSISGC, which amyloid nucleation score is on record?
Answer: Its amyloid nucleation score is 0.332 ± 0.69.

Question: With TRYTKKWQVLTDWSVGYTGT as the substance, how does the amyloid nucleation score read?
Answer: Its amyloid nucleation score is -0.443 ± 0.41.

Question: With TRYVNMIFPPLVCWGDEILW as the substance, how does the amyloid nucleation score read?
Answer: The amyloid nucleation score was 0.873 ± 0.77.

Question: With TSFFADYVHTIKLLAPLSVG as the substance, how does the amyloid nucleation score read?
Answer: Its amyloid nucleation score is “inactive”.

Question: With TSGHNVIPRGTVSSVVRILY as the substance, how does the amyloid nucleation score read?
Answer: The amyloid nucleation score was -0.498 ± 0.36.

Question: With TSINGYSVAKSGGSMYCIGM as the substance, how does the amyloid nucleation score read?
Answer: The amyloid nucleation score was -0.194 ± 0.67.

Question: With TSIRRRLVRFFFNILPVVGL as the substance, how does the amyloid nucleation score read?
Answer: The amyloid nucleation score was 1.67 ± 0.17.

Question: For TSPYAFKRWFSLGLYDLSRF, which amyloid nucleation score is on record?
Answer: The amyloid nucleation score was “inactive”.

Question: With TSRVH as the substance, how does the amyloid nucleation score read?
Answer: Its amyloid nucleation score is 0.228 ± 1.2.

Question: Which amyloid nucleation score does the source give for TSRYVFRT here?
Answer: The amyloid nucleation score was 0.925 ± 0.58.

Question: With TSSMCVFVSGNSEFVLWALE as the substance, how does the amyloid nucleation score read?
Answer: Its amyloid nucleation score is 0.286 ± 0.51.

Question: For TSSPKRFLIMKVNCIIILDL, which amyloid nucleation score is on record?
Answer: The amyloid nucleation score was -0.721 ± 0.68.

Question: For TSTSC, which amyloid nucleation score is on record?
Answer: Its amyloid nucleation score is 0.223 ± 0.51.

Question: Which amyloid nucleation score does the source give for TSVNMVIYILLVNFMKFLVG here?
Answer: The amyloid nucleation score was 1.37 ± 0.45.

Question: With TSVSARFFFCRKISRMHRSS as the substance, how does the amyloid nucleation score read?
Answer: Its amyloid nucleation score is -0.885 ± 1.1.

Question: For TSVSNMFENPKNLSLVPTVG, which amyloid nucleation score is on record?
Answer: Its amyloid nucleation score is 1.94 ± 0.5.

Question: With TSYIQW as the substance, how does the amyloid nucleation score read?
Answer: The amyloid nucleation score was -0.359 ± 0.29.

Question: With TSYQA as the substance, how does the amyloid nucleation score read?
Answer: The amyloid nucleation score was -0.115 ± 0.22.

Question: With TTASVSSEI as the substance, how does the amyloid nucleation score read?
Answer: Its amyloid nucleation score is -0.441 ± 1.2.

Question: With TTEHAK as the substance, how does the amyloid nucleation score read?
Answer: Its amyloid nucleation score is -0.263 ± 0.2.

Question: Which amyloid nucleation score does the source give for TTFFFDF here?
Answer: The amyloid nucleation score was 2.59 ± 0.18.

Question: With TTGSALTETATDQVGWNYSL as the substance, how does the amyloid nucleation score read?
Answer: Its amyloid nucleation score is 0.265 ± 0.41.

Question: Which amyloid nucleation score does the source give for TTKSLSVSLGGHYYVTRVRR here?
Answer: The amyloid nucleation score was 0.81 ± 0.83.

Question: For TTLVKPDEIVFVSINECWCW, which amyloid nucleation score is on record?
Answer: Its amyloid nucleation score is 0.021 ± 0.59.

Question: Which amyloid nucleation score does the source give for TTPFLHKENLNSIMK here?
Answer: The amyloid nucleation score was 0.396 ± 0.26.

Question: For TTQDCNLRD, which amyloid nucleation score is on record?
Answer: Its amyloid nucleation score is -0.021 ± 0.34.

Question: For TTSCNGLFERAKNSTNSPDI, which amyloid nucleation score is on record?
Answer: Its amyloid nucleation score is -2.25 ± 2.4.

Question: For TTSFRHSVYQDYGLSVIDCG, which amyloid nucleation score is on record?
Answer: The amyloid nucleation score was -0.351 ± 0.78.

Question: Which amyloid nucleation score does the source give for TTSPGSNSRDPAGMMIT here?
Answer: Its amyloid nucleation score is 0.38 ± 0.32.

Question: With TTTKLGPMLLGRNSVYCV as the substance, how does the amyloid nucleation score read?
Answer: Its amyloid nucleation score is 2.31 ± 0.25.

Question: For TTTRVFS, which amyloid nucleation score is on record?
Answer: Its amyloid nucleation score is 0.813 ± 0.81.

Question: With TVAFWF as the substance, how does the amyloid nucleation score read?
Answer: Its amyloid nucleation score is “inactive”.

Question: For TVANT, which amyloid nucleation score is on record?
Answer: The amyloid nucleation score was 0.888 ± 1.1.

Question: For TVFRTSFLWHGMGRGLVR, which amyloid nucleation score is on record?
Answer: Its amyloid nucleation score is 1.03 ± 0.59.

Question: For TVGSLRAW, which amyloid nucleation score is on record?
Answer: The amyloid nucleation score was 1.15 ± 0.62.

Question: For TVLKVSTEYFFLMKESGVVC, which amyloid nucleation score is on record?
Answer: Its amyloid nucleation score is 0.593 ± 0.26.

Question: For TVNCFDYSVSGVSSNRV, which amyloid nucleation score is on record?
Answer: The amyloid nucleation score was 0.882 ± 0.66.

Question: Which amyloid nucleation score does the source give for TVRKDGNTRSFFSSLRMQAS here?
Answer: Its amyloid nucleation score is -0.654 ± 0.3.

Question: For TVRVVDLGQVVGSGVMASMP, which amyloid nucleation score is on record?
Answer: Its amyloid nucleation score is 1.23 ± 0.17.

Question: With TVSKNMYR as the substance, how does the amyloid nucleation score read?
Answer: The amyloid nucleation score was -0.259 ± 0.5.

Question: With TVTAVY as the substance, how does the amyloid nucleation score read?
Answer: Its amyloid nucleation score is “inactive”.

Question: With TVVWFTLIFLSLESSCINSL as the substance, how does the amyloid nucleation score read?
Answer: Its amyloid nucleation score is 1.22 ± 0.2.

Question: For TVYLSNCERIYMQWVREFVS, which amyloid nucleation score is on record?
Answer: The amyloid nucleation score was 2.68 ± 0.14.

Question: With TVYSMPKVTKTYGGFPAKSH as the substance, how does the amyloid nucleation score read?
Answer: Its amyloid nucleation score is 0.312 ± 0.34.

Question: With TWDSPVPG as the substance, how does the amyloid nucleation score read?
Answer: The amyloid nucleation score was 0.208 ± 0.29.

Question: Which amyloid nucleation score does the source give for TWKLATCIWRSLF here?
Answer: The amyloid nucleation score was -0.238 ± 0.21.

Question: With TWLTRYLPLNEFRMG as the substance, how does the amyloid nucleation score read?
Answer: Its amyloid nucleation score is 0.776 ± 0.36.

Question: Which amyloid nucleation score does the source give for TWSSKIEDSSAYYDG here?
Answer: The amyloid nucleation score was 1.65 ± 0.36.

Question: Which amyloid nucleation score does the source give for TWSTGAMPML here?
Answer: The amyloid nucleation score was -0.344 ± 0.84.

Question: With TWYILMTRGILGTAATHIRL as the substance, how does the amyloid nucleation score read?
Answer: Its amyloid nucleation score is -0.234 ± 0.91.

Question: Which amyloid nucleation score does the source give for TYDLPTYIILVSPQYLCANT here?
Answer: The amyloid nucleation score was -0.06 ± 0.27.

Question: For TYGGYR, which amyloid nucleation score is on record?
Answer: The amyloid nucleation score was -0.343 ± 0.93.

Question: For TYLAVGLMHYEWRGDSVSTD, which amyloid nucleation score is on record?
Answer: The amyloid nucleation score was -0.603 ± 0.32.

Question: For TYLRKIKKRFPGSRYPSLMG, which amyloid nucleation score is on record?
Answer: The amyloid nucleation score was 0.15 ± 0.46.

Question: With TYLRMCGSSTR as the substance, how does the amyloid nucleation score read?
Answer: Its amyloid nucleation score is -0.14 ± 0.3.

Question: For TYLVILR, which amyloid nucleation score is on record?
Answer: Its amyloid nucleation score is 0.33 ± 0.39.

Question: With TYLYNYILASSLSHRALYNA as the substance, how does the amyloid nucleation score read?
Answer: Its amyloid nucleation score is 1.62 ± 0.73.

Question: For TYNVLSTLWRFCVIVLRICC, which amyloid nucleation score is on record?
Answer: Its amyloid nucleation score is 0.558 ± 1.1.

Question: For TYRCGHLLGFVY, which amyloid nucleation score is on record?
Answer: Its amyloid nucleation score is “inactive”.

Question: With TYRTLAARRWQLAYALWVLL as the substance, how does the amyloid nucleation score read?
Answer: The amyloid nucleation score was -0.474 ± 0.6.

Question: For TYWFMSRC, which amyloid nucleation score is on record?
Answer: Its amyloid nucleation score is 0.254 ± 0.88.

Question: Which amyloid nucleation score does the source give for TYWYSVRNVAQLCPVEGYQS here?
Answer: The amyloid nucleation score was -0.102 ± 0.7.

Question: With TYYSGDSAYLPIDAIMLVWY as the substance, how does the amyloid nucleation score read?
Answer: Its amyloid nucleation score is -1.07 ± 0.65.
